{"source": "patent US8173604", "key": {"[1]": {"target": "insect cell-produced and purified GST-cyclin A/Cdk2 (kinase reactions, ~3 nM) (UniProt P20248)", "assay": "kinase inhibition: purified proteins, ~3 nM GST-cyclin A/Cdk2, Rb-C phosphorylation, non-linear least squares (FIG. 7F)"}, "[2]": {"system": "Peptide RxL"}, "[3]": {"system": "4060 peptide (eighteen-residue peptide, residues 40-57 of human Skp2)"}}, "data": [{"substance": "purified p27 (GST cleaved off by thrombin) (from UniProt P46527 1-198) (other; other documents disagree on this pair)", "values": [{"measurement": "Ki", "setting": "[1]", "result": 2, "unit": "nM"}]}, {"substance": "myc-cyclin A/Cdk2 (293T cell extracts transfected with myc-cyclin A and Cdk2)", "values": [{"measurement": "IP-kinase assay, phosphorylation of Rb-C by cyclin A/Cdk2", "setting": "[2]", "result": "the RxL peptide inhibited the kinase activity of cyclin A/Cdk2 towards Rb-C as expected"}, {"measurement": "IP-kinase assay, phosphorylation of Rb-C by cyclin A/Cdk2", "setting": "[3]", "result": "the 4060 peptide did not"}]}]}
